Residue numbers refer to the chain shown, from its start. In names and notes the source's numbering stands. One block for each binder: values may come before it.
Tests used:
[1] = molecular target: T1, human Tie2 extracellular domain (hTie2 ECD) (human, UniProt Q02763); assay: SPR; Biacore T200; hTie2 ECD immobilised on CM5 chip by amine coupling (10 mM acetate pH 5.5); antibodies flowed at 0-64 nM, 300 s association, 300 s dissociation, 30 µl/min; HBS-EP+ buffer; 1:1-binding model, global fit; conditions: both partners purified
T1 construct: human Tie2, extracellular domain, residues 23–735 of human Tie2; Host, tags and purification of the ECD are not described; also called Human Tie2 ECD; source: produced in house

mouse Tie2 Ig3–Fn3 [2] = molecular target: T2, mouse Tie2 Ig3–Fn3 (Mus musculus, UniProt Q02858); assay: BLI; Octet, 30 °C; mouse hTAAB (10 μg/ml) loaded on anti-mouse IgG Fc capture (AMC) biosensors; 1600 nM mouse Tie2 Ig3–Fn3 in kinetics buffer (0.01% BSA, 0.002% Tween-20, 0.005% NaN3 in PBS); 600 s association, 600 s dissociation; conditions: both partners purified
T2 construct: mouse Tie2, Ig3–Fn3, residues 349–737; also called mTie2 Ig3–Fn3; mTie2

mouse Tie2 Ig3–Fn3 [3] = molecular target: T2, mouse Tie2 Ig3–Fn3; assay: BLI; Octet, 30 °C; humanized IgG1s and mouse Tie2; how the humanized IgG1s were loaded is not told (Supplementary Fig. 5f); conditions: both partners purified
[4] = molecular target: the molecule itself; assay: cross-linking; engineered disulfide bonds (D682C/N691C) across the Fn3–Fn3' interface; SDS-PAGE with Coomassie blue under reducing and non-reducing conditions

T1 sequence (Q02763 23-735): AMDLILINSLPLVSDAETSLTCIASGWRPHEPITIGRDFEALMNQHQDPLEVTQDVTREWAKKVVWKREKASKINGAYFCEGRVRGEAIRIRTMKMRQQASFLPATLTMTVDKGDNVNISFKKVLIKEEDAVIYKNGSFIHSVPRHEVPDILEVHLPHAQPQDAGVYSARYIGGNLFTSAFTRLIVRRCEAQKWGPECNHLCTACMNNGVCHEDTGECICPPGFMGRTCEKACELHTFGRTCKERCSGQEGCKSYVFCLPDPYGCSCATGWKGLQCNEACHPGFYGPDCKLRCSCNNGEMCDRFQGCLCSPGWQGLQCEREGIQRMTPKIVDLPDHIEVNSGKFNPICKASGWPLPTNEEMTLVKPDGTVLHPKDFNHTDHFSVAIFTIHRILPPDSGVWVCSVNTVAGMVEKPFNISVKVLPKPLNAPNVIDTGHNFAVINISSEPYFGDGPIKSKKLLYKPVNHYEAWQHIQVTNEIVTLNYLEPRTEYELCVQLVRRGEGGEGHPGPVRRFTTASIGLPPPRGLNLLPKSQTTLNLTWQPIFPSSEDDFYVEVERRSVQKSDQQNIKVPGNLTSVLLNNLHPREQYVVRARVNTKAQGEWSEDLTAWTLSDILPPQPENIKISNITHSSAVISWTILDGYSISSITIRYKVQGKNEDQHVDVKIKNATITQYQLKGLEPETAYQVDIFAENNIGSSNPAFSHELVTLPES
T2 sequence (Q02858 349-737): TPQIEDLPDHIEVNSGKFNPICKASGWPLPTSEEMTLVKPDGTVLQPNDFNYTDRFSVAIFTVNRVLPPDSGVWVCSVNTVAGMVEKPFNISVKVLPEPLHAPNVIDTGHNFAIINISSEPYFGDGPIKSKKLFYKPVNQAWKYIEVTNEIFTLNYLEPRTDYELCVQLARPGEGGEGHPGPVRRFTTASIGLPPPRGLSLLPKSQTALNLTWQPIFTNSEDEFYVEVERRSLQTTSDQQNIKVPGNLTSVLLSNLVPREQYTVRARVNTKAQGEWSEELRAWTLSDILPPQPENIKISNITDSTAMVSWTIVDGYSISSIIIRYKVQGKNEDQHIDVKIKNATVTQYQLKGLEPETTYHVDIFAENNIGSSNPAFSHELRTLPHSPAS

Kd [1]: 4.2 nM
koff [1]: 0.0006 s⁻¹
kon [1]: 140000 M⁻¹ s⁻¹
binding result (mouse Tie2 Ig3–Fn3 [2]): no binding (tested: 1600 nM)
B1: human Tie2-activating antibody (hTAAB), mouse IgG1 (antibody, V domains shown)
VH: QVQLQQPGAELVRPGASVKLSCKASGYSFTSYWMNWVKQRPGQGLEWIGMIHPSDSETRLNQKFMDKATLTVDKSSSTAYMQLSSPTSEDSAVYYCARGLYGNSWGQGTLVTVSA
VL: DIQMTQSPSSLSASLGERVSLTCRASQDIGISLNWLQQEPDGTIKRLIYATSSLDSGVPKRFSGSRSGSDYSLTISSLESEDFVDYYCLQYASSPYTFGGGTKLEIK
notes: heavy-chain variable region of hTAAB (clone 3H7; closest germline mIGHV1-61*01); mouse IgG1 heavy-chain constant region; light-chain variable region of hTAAB (clone 3H7; closest germline mIGKV9-120*01); mouse kappa light-chain constant region; Mouse IgG1 from the hybridoma; also called 3H7; mouse hTAAB; source: B-cell hybridoma clone 3H7, serum-free culture supernatant, purified (Protein G); …

binding result (mouse Tie2 Ig3–Fn3 [3]): no binding (tested: 1600 nM)
B2: hzTAAB-H1L1 (antibody, V domains shown)
VH: QVQLVQSGAEVKKPGASVKVSCKASGYSFTSYWMHWVRQAPGQGLEWMGIIHPSDSETRYAQKFQGRVTMTRDTSTSTVYMELSSLRSEDTAVYYCARGLYGNSWGQGTLVTVSS
VL: DIQMTQSPSSLSASVGDRVTITCRASQDIGISLGWYQQKPGKAPKRLIYATSSLQSGVPSRFSGSGSGTEFTLTISSLQPEDFATYYCLQYASSPYTFGQGTKLEIK

binding result (mouse Tie2 Ig3–Fn3 [3]): no binding (tested: 1600 nM)
B3: hzTAAB-H2L1 (antibody, V domains shown)
VH: B2 VH with R72V, T74K
VL: B2 VL

binding result (mouse Tie2 Ig3–Fn3 [3]): no binding (tested: 1600 nM)
B4: hzTAAB-H2L2 (antibody, V domains shown)
VH: B2 VH with R72V, T74K
VL: B2 VL with G34N, Y36L, Q55D, G66R

binding result (mouse Tie2 Ig3–Fn3 [3]): no binding (tested: 1600 nM)
B5: hzTAAB-H1L2 (antibody, V domains shown)
VH: B2 VH
VL: B2 VL with G34N, Y36L, Q55D, G66R

B6: hTie2 Ig3–Fn3 D682C/N691C (domain or fragment, human, UniProt Q02763 349-738, looked up)
chain: TPKIVDLPDHIEVNSGKFNPICKASGWPLPTNEEMTLVKPDGTVLHPKDFNHTDHFSVAIFTIHRILPPDSGVWVCSVNTVAGMVEKPFNISVKVLPKPLNAPNVIDTGHNFAVINISSEPYFGDGPIKSKKLLYKPVNHYEAWQHIQVTNEIVTLNYLEPRTEYELCVQLVRRGEGGEGHPGPVRRFTTASIGLPPPRGLNLLPKSQTTLNLTWQPIFPSSEDDFYVEVERRSVQKSDQQNIKVPGNLTSVLLNNLHPREQYVVRARVNTKAQGEWSEDLTAWTLSDILPPQPENIKISNITHSSAVISWTILDGYSISSITIRYKVQGKNECQHVDVKIKCATITQYQLKGLEPETAYQVDIFAENNIGSSNPAFSHELVTLPESQAP
modifications: two intermolecular disulfide bonds between the introduced cysteines 682 and 691
notes: human Tie2, Ig3–Fn3, residues 349–738, with D682C and N691C; Made by overlap extension PCR from the pFuse-hTie2 Ig3–Fn3–hIgG1–Fc construct; also called constitutive Tie2 Ig3–Fn3 dimer; Tie2 dimeric mutant; source: Expi293F, secreted as Fc fusion, purified as for hTie2 Ig3–Fn3 (MabSelect SuRe, Fc removed by thrombin); not shown: Fc (human IgG1), C-terminal, cleaved
binding result [4]: binds

Source: article PMC8560823, “Structural insights into the clustering and activation of Tie2 receptor mediated by Tie2 agonistic antibody” (Nature Communications, 2021)
